pKd: −log10 of the molar value.
Target: IL-8 binding sites on human neutrophils (human)
Experiment: competition of 125I-IL-8 by unlabelled IL-8 on human neutrophils, 2 hr at 4 degrees

- pKd: 8.96
- binding sites/cell (binding sites/cell): 31000
Substance: human 72 amino acid IL-8 (from UniProt P10145 21-99) (ligand)

Reference: patent EP0577752B2
